Assay: yeast display, Sf9 membrane polyspecificity reagent, FACS + sequencing; frameworks hold sequencing errors
How it was run: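 Nanobodies from a synthetic yeast display library (Saccharomyces cerevisiae BJ5465), induced 36–48 hours with galactose, were stained 1 hour at 4 °C with 10% biotinylated, detergent-solubilized Sf9 membrane reagent, enriched on streptavidin microbeads, then FACS-sorted. Anti-HA (expression) and streptavidin (reagent binding) fluorescence set low and high (top ~1%) gates. Polyreactivity labels come from the gate of origin. Genes were colony-PCR amplified, MiSeq 2 × 250 sequenced and filtered by CDR length.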

| Sequence | polyreactivity (PSR sort gate) |
| --- | --- |
| QVQLVESGGGLVQAGGSLRLSCAASGSIFTTYAMGWSRQAPGKERELVAAITTSGGRTYYADSVKGRFTISRDNAKNTVYLQMNSLKPDDTAVYYCNAVRGGRYGLDYWGQGTQVTVSS | high polyreactivity |
| QVQLVESGGGLVQAGGSLRLSCAASGSIFYYNVMGWYRQAPGKERELVAAIDIDGSTYYADSVKGRFTISRDNAKNTVYLQMNSLKPEDTAVYYCNAQAPYWFSFYSDHKYDYWGQGTQVTVSS | low polyreactivity |
| QVQLVESGGGLVQAGGSLRLSCAASGSTFGPYTMGWKRPAPGKERELVATISSGGSTYYADSVKGRFTISRDNAKNTVYLQLNCLKPEDTAVYSCAKDFWYRSYDYWGQGTQVTLSS | low polyreactivity |
| QVQLVESGGGIDQAGGSLRLSCAASGSNFYTYAMGWYRQAPGKEREFVAAITRGGARTYYADSVKWRFTISRDNAKNTVYLQMNSLKPEDTAVYYCAKLGKATTQVGSDYWGQGTQVSVSS | low polyreactivity |
| QVQLVESGGGLVQAGGSLRLSCAASGSIFVPYAMGWYRQAPGKERELVAAITWSGSSTYYADSVKGRFTISRDNAKNTVYLQMNSLKPEDTAVYYCAADYFDWEGNGYYYWGQGTQVTVSS | high polyreactivity |
| QVQLVESVGGLVQAGGSLRISCAASGSTLTRNTMGWYRPAPGKEREFVATITRSGGSTYYADSVKGRFTISRDNAKNTVYLQMNSLKPEDTAVYYCAVRRQTFRYVYPGMDYWGQGTQVTVSS | high polyreactivity |
| QVQLLESGGGLVQAGGTLRLSCSASGGIFVNYAMGWYRQAPGKERELVAAISRSGGSTYYADSVKGRFTISRDNAKNTVYLQLNSLKPEVTAVYYCNAVLQKYRFEYDYWGQGSQVTVSS | high polyreactivity |
| QVQLVESGGGLVQAGGSLRLSCAASGLTFKYNAMGWYRQAPGKERELVAGISWSTSSTYYADSVKGRFTISRDNAKNTVYLQMNSLKPEDTAVYYCAVYTITGRVLRQGPLYRHYYWGQGTQVTVSS | high polyreactivity |
| QVQLVESGGGLVQAGGSLRLSCAASGLIFQFNAKGWYTQAPGKDREFVAAISGRADSTYYADSVKGRFTISRDNAKNTVYLQMNSLKPEDTAVYYCAALAYYHRYEYWGQGTQVTVSS | low polyreactivity |
| QFQLVESAGGLFQAVGSHRLSCAASGRTFTQYAMGWYRQAPGKERELVAAISWRGGSTYYADSVKGRFTISRDNAKNTVYLQMNSLKPEDTAVYYCAKRYFRGYPLYDYWGQGTQVTVSS | high polyreactivity |
| QVQLVESGGGLVQAGGSHRLSCAASGFTFRRNAMGWYRQAPGKERELVAAISWSGGSTYYADSVKGRFTISRDNAKNTVYLQMNSLKPEDTAVYYCAAYDYRHLEDKYDYWGQGTQVTVSS | high polyreactivity |
| QVQLVESGGGLVQAGVSLRLSCPAGGSTFYKYVMGWYRQAPGKEREVVAAISVNGGDTYYADSVKGRFTISRDNAKNTVSVQMNSLNPEDTAVYYCAAERGVDLSARYGDNDNWGQGTQVTVTS | low polyreactivity |
| QVQLVESGGGLVQAGGSLRLSCAASGSTFDFNAMGWYRQAPGKERELVAAITSGGGSTYYADSLKGRFTISRDNAKNTVYLQMNSLKPEDTAVYYCAADDIVLRYDYWGQGTQVTVSS | low polyreactivity |
| QVQLVESGGGLVQAGGSLRLSCAASGRTLEIYTMGLNRQAPGKERELVAAISGGSTYYADSVKGRFTISRDNSKNTVYLQMNSLKPEDTAVYYCAARPYVFRYHRWTVDWRYDYWGQGTQVTVSS | low polyreactivity |
| QVQLVESGGGLVQAGGSLRLSCAASGRIFYSNAMGWYRQAPGKEREFVAAISWSGGGTYYADSVKGRFTISRDNAKNTVYLQMNSLKPEETAVYYCAAVFGYSWAFEYDYWGQGTQVTVSS | low polyreactivity |
| QVQLVESGGGLVQAGGSLRLSCADSGSIFAYAMGCSRQAPRKESELVAGISSSGGRTYYADSVKGRFSISRDNAKNTVYLQMNSLKPEDTAVYYCAAKRWGLYKGYYWGQGTQVTVSS | high polyreactivity |
| QVQLVESGGGLVQAGGSLRLSCAASGSIFYENMGWYRQSPRKERELVASISWSGTSTYADSVKGRFTISRDNAKNTVYLQMNSLKPEDSAVYYCAAGKNGYTYSRSYSYGYWGQGTQVTVSS | high polyreactivity |
| QVQLVESGGGLVQAGGSLRLSCAASGNIFAWYAMGWYRQAPGKERELVADISSRGGSTYYADSVKGRFTISRDNAKITVYLQMNSLKPEDSAVYYCAAVWYWTQDYDYWGLGTQVTVSS | low polyreactivity |
| QVQLVETGGGLVQAGGSLRISCAASGGIFVFYAMGWYRQAPGKERELVAAISWSGTSTYYADSVKGGFTISRDNAKYTVYLQMNRLKPEDTAVYYCAALYPYQYVRGGYWGQGTQVTVSS | high polyreactivity |
| QVQLVESGGGLVQAGGSLRLSCAASGRTFYIYAMGWYRPAPGKERELVAAITYGGGRTFYADSVKGRFTISRDNAKNTVYLQMNSLKPEDTAVYYCAATVRGKRSTYDYWGQGTQVTVSS | high polyreactivity |
| QVQLVESGGGLVQAGGSLRLSCAASGRIFRGNAMGWYRQAPGKERQLVADINRSGGSTYYADSVKGRFTISRDNAKNTVYLQMNSLKPEDTAVYYCNAKYRVPYAVGGDYGYWGQGTQVTVSS | high polyreactivity |
| QVQLQESGDGLVQAVGSLRLSCAASGYISGYYYMGWYRQAPGKERELVAGIDAFGSSTNYADCVKGRLTISRDNAKNTVYLQMNSPKPEDTAVYYCAAEYDDWDYHWYWGQGTQVTVSS | low polyreactivity |

| Sequence | polyreactivity (PSR sort gate) |
| --- | --- |
| QVQLVESGGGLVQAGGSLRLSCAASGSTFLGNAMGWYRQAPGKERELVASIRWTTGSTYYADSVKGRFTISRDNAKNTVYLQMNSLKPEDTAVYYCAKGLYVQFDYWGLGTQVTVSS | low polyreactivity |
| QVQLVESGGGIVQAGGSLRLSCAASGRIFYGYTMGWYRQAPGKERELVASIDYSTGRTYYADSVKGRFTISRDNAKNTVYLLMNSLKPEDTAVYYCNADPNYSFLRYDYWGQGTQVTVSS | high polyreactivity |
| QVQLVESGGGLVQAGGSLRLSCAASGTFTVNTMGWYRQAPGKVSELVAAISTGDTTTYADSVKGRFTISRDNAKNTVYFQLNSLKPEDTAVYYCNVDIGVYAYESDYWGQGTQVTVSS | low polyreactivity |
| QVQLVESGGGLVQAGGSLRLSCAASGLTFRRYAMGWYRPAPGKEREFVAAITHNGGRTYYADSVKGRFTISRDNAKNTVYLQMNSLKPEDTAVYYCNAGGQRVNYDYWGQGTQVTVSS | high polyreactivity |
| QVHLVESGAGLVKAGGSLRLSCAASGRTFRYNAMGWYRQQPGNERELVATITTRGGSTYYADSVKGRFTISRDNAKNTVYLQMNSLKPEDTAVYYCATKWPVYPTGYDYWGQGTQVTVSS | low polyreactivity |
| QVQLVESGGGLVQAGGSLRLSCAASGSIFGDYAMGWYRQAPGKERELVADISSGGSTTYADSVTGRFTISRDNAKNTVYLQMNSLKPEDTAVYYCAVDGGDFSSYGNWGQGTQVTVSS | low polyreactivity |
| QVQLVESGGGLVQAGGSLRLSCAASGFTFNKNAMGWYRQEPRKERELVAAISSSVGSTRYADSVKGRFTISRDNAKNTVYLQRNSLKPEDTAVYYCAVYVTPHSGWWLYDYWGQGTQVTVSS | high polyreactivity |
| QVQLVESGGGLVQAGGSLRLSCAASGSTFNAYAMGWYRQAPGKERELVAVISSSGGRTYYADSVKGSFTISRDNAKNTVYLQMNSLKPEDTAVYYCNADVKYRYNHWGQGTQVTLSS | high polyreactivity |
| QVQLVESGGGLVQAGGSLRLSCAASGSIFYINAMGWYRQAPGKERELVAAIRSGGSTNYADSVKGRFTISRDNAKNTVYLQMNSLKPEDTAVYYCNARSRSYVPYYYWGQGTQVTVSS | high polyreactivity |
| QVQLVESGGGLVQAGGSLRLSCAASGRTFGPYEMGWYTQAPGKERELVASISSADSTYYADSVKGRFTISRDNAKNTVYLQMYSLKPEDTAVYYCAAPSVGYYDPTDFDYWGQGTQVTVSS | low polyreactivity |
| QVQLVESGGGLVQAGGSLRLSCAASGSIFPDYALGWYRQPPGKERELVAAITWRDDSTYYADSVKGRFTSSRDKAKNTVYLQMNSLKPEETAVYYCNASAMDPLYAKDDYWGQGTQVTVSS | low polyreactivity |
| QVQLVESGGGLVQAGGSLRLSCAASGSIFQGYALGWYRQAPGKERELVAAITASGGSTYYADSVKGRFTISRDNAKNTVYLQMNSLKPEDTAVYYCATDSYWRQDLYRYEYWGQGTQVTVSS | high polyreactivity |
| QVQLVESGGGLVQAGGSLRLSCAASGFTFGYYGMGSYRQAPGKERELVAAISWSGGSTYYADSVKGRFTISRDNAKNTVYLQMNSLKPEDTAVYYCAASAGYASNYWGQGTQVTVSS | low polyreactivity |
| QVQLVESGGGLVQAGGSLRLSCAASGFTFWRNVMGWYRQAPGKERELVAVISRGGSTNYADSVKGRFTISRDNAKNTVYLQMNRLKPEDTAVYYCPKYARGPSKVDYWGQGTQVTVSS | high polyreactivity |
| QVQLVESGGGLVQAGCSLRLSCAASGSIFVNKAMGWYRQAPGKERELVAAISSRSSRTFYADSVKGRFTISRDNSKNTVYLQMNSLKPEDTAVYYCAARRRLAWGQGTQVTVSS | high polyreactivity |
| QVQLVESGGGLVQAGGSLRLSCAASGFIFRYNAMGWYRQAPGKERELVARITSSGGTTYYADSVKGRFTISRDNAKNTVYLQMNSLKPEDTAVYYCAITWRKYYPPYYYWGQGTQVTVSS | high polyreactivity |
| QVQLVESGGGLVQAGGSLRFSCAASGGTFGYNAMGWYRQAPGKDRELVARISWRGASTYYADSVKGRFTLSRDNAKNTVYLQMNSLKPEDTAVYYCAAYSFNYQPAYAYRGEDYWGQGTQVTVSS | low polyreactivity |
| QVQLVESGGGLVQAGGSLRLSCAASGSTPVYAMGWYRQAPGKERELVAAIRRRASSTYYADSVKGRFTISRDNAKNPVYLQMNSLKPEDTAVYYCAVGRVNGVLLGYWGQGTQVTVSS | high polyreactivity |
| QVQLVESGGGLVQAGGSLRLSCAATGSTSGKNAMGWYRQAPAKERELFAAIRNSGGTTYYADSVKGRFTISRDNAKNTVYLQMNSLKPEDTAVYYCATRYYLNFLDGYNYWGQGTQVTVSS | high polyreactivity |
| QVQLVESGGGLVQAGGSLRLSCAASGRIFQSYAMGWYRQAPGKERELVAGINSDTSTNYADSVKGRFTISRDNAKNTVYLQMNSLKPEDTAVYYCNAGWDTYYWQSTEFDYWGQGSQVTVSS | low polyreactivity |
| QVQLVESGGGLVQAGGSLRLSCAASGFIFEWNGMGWYRQAPGKERELVAAITWSGGSTYYADSVKGRFTISRDNAKYTVYLHMNSLKPEDTAVYYCAADFPEYYLPYDYWGQGTQVTVSS | low polyreactivity |
